Experimental data taken from patent US20110206616A1.

Target: SNAP 25 (endogenous, rat neuronal cells) (rat) (UniProt P60881)
Assay: cell-based or functional assay

Sequence of UniProt P60881 (P60881 whole entry): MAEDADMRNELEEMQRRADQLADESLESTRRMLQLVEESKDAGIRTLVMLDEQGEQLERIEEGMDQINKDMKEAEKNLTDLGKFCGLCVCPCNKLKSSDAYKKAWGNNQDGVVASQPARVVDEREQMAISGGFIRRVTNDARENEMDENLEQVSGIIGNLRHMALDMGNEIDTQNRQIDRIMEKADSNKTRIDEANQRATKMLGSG

“wt BoNT/A (wild type botulinum neurotoxin serotype A) (from UniProt P0DPI1 2-1296)” gave an intracellular SNAP 25 cleavage (concentration of wt toxin used) of 0.5 nM.
